Measured values reported in patent publication US20200055939A1 (Genentech, published 2020).

T1: T250A
T1 construct: % monomer 91.61; also called MICA*008.mIgG2a T250A
T1 chain: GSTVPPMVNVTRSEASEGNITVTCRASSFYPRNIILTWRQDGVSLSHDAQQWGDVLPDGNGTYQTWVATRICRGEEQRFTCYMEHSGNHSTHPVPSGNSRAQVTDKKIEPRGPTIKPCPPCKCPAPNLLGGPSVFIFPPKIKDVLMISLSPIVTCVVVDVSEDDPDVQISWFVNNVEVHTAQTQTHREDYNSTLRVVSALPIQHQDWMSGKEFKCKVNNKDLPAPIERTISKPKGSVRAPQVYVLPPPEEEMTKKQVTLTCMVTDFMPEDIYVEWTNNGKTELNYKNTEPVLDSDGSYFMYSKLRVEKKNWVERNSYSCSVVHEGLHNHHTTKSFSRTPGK

T2: E276A
T2 construct: % monomer 86.14; also called MICA*008.mIgG2a E276A
T2 chain: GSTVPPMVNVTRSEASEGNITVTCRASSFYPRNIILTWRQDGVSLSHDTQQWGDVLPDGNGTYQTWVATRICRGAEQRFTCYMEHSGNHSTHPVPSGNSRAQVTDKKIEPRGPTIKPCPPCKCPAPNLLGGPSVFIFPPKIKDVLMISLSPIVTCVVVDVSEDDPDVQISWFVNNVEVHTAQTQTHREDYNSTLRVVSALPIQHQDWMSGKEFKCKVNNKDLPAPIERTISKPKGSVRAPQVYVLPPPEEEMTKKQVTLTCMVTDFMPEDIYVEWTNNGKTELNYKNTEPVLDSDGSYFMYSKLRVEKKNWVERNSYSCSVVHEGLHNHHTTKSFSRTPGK

T3: H290A
T3 construct: % monomer 90.37; also called MICA*008.mIgG2a H290A
T3 chain: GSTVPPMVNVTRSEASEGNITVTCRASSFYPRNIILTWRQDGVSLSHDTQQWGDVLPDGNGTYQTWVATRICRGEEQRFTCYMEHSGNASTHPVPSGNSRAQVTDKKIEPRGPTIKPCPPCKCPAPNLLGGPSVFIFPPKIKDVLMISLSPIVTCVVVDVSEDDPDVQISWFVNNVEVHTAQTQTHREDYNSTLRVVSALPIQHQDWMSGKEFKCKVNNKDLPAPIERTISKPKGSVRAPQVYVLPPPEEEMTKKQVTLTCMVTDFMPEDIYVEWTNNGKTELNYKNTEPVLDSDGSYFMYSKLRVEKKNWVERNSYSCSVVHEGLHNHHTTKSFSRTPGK

T4: T292A
T4 construct: % monomer 80.56; also called MICA*008.mIgG2a T292A
T4 chain: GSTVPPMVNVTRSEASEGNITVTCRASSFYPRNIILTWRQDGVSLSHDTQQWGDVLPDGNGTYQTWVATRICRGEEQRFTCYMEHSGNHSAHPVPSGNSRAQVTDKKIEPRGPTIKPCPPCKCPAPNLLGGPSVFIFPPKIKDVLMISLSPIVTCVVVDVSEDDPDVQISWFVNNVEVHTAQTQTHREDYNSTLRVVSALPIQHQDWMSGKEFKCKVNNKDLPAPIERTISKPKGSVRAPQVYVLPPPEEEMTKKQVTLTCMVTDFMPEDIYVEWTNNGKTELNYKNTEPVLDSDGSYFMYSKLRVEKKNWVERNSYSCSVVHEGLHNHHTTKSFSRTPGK

T5: P296A
T5 construct: % monomer 92.3; also called MICA*008.mIgG2a P296A
T5 chain: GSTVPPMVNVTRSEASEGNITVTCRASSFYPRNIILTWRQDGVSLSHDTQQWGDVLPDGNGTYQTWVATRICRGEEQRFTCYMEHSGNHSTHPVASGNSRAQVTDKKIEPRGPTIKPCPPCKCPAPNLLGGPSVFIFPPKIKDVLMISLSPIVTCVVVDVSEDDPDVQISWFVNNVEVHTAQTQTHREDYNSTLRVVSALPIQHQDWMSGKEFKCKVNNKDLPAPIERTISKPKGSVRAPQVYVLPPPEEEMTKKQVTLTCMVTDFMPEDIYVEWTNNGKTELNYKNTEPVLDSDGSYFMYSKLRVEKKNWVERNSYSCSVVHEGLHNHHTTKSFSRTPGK

T6: S297A
T6 construct: % monomer 89.24; also called MICA*008.mIgG2a S297A
T6 chain: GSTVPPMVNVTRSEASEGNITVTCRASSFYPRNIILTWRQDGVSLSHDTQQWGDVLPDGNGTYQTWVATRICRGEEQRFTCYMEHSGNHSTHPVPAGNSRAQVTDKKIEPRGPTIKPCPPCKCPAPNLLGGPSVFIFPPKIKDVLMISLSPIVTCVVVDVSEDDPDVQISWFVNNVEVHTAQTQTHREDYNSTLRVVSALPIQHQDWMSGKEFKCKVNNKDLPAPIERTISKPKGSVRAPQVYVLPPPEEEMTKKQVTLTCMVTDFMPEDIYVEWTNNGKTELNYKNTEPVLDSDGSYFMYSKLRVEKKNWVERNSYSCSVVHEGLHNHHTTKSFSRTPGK

T7: S247A
T7 construct: % monomer 94.87; also called MICA*008.mIgG2a S247A
T7 chain: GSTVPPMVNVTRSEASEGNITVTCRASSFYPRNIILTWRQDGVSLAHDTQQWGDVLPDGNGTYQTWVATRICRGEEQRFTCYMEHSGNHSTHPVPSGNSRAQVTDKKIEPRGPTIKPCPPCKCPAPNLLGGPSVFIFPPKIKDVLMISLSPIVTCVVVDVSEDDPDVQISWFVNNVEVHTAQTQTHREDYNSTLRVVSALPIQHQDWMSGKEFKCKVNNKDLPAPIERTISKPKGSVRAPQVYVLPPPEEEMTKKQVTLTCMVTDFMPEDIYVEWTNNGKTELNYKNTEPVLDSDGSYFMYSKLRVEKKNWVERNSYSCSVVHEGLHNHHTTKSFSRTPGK


How the values were obtained:
Test in all cases: SPR, Fab over captured MICA*008.mIgG2a Ala variant; KD relative to wild type
T250A = target: T1, T250A
E276A = target: T2, E276A
H290A = target: T3, H290A
T292A = target: T4, T292A
P296A = target: T5, P296A
S297A = target: T6, S297A
S247A = target: T7, S247A

Row | Binder | fold-decrease in affinity (T250A) | fold-decrease in affinity (E276A) | fold-decrease in affinity (H290A) | fold-decrease in affinity (T292A) | fold-decrease in affinity (P296A) | fold-decrease in affinity (S297A) | fold-decrease in affinity (S247A)
1 | 2E5.2.3 Fab (Fab, V domains shown) VH: QGQMQQSGAELVKPGASVKLSCKTSGFTFSDNYISWLKQKPGQSLEWIAWIYAGTGGTSYNQKFTAKAQLTVDTSSSTAYMQFSSLTTEDSAIYYCARHDYYGTSGAWFAYWGQGTLVTVSA VL: DVLMTQTPLSLPVSLGDQASLSCRSSQNIVHINGNTYLEWYLQKPGQSPKLLIYKVSNRFSGVPDRFSGSGSGTDFTLKISRVEAEDLGVYYCFQGSHVPWTFGGGTKVEIK | 1.2 | 1.2 | 0.8 | 1.3 | 0.6 | 1.2 | 1.1
2 | 1D5 Fab (Fab, V domains shown, Expressed in E. coli as chimera of murine variable and human constant domains; not shown: human IgG1 CH1 constant domain; human kappa CL constant domain) VH: EIQLQQSGPELVKPGASVKVSCKASGYAFTSQNIYWVKQSHGKSLEWIGYIEPYNVVPMYNPKFKGKATLTVDKSSSSAYIHLNSLTSEDSAIYYCARSGSSNFDYWGQGTTLTVSS VL: EIILTQSPTTMAASPGEKITITCSASSSISSHYLHWYQQKSGFSPKLLIYRTSNLASGVPARFSGSGSGTSYSLTIGTMEAEDVATYYCQQGSSLPLTFGAGTKVEIK | 8.8 | 22 |  |  | 1.9 | 0.05 | 0.2

Results, then the binder that gave them:

Row | fold-decrease in affinity (T250A) | fold-decrease in affinity (E276A) | fold-decrease in affinity (H290A) | fold-decrease in affinity (T292A) | fold-decrease in affinity (P296A) | fold-decrease in affinity (S297A) | fold-decrease in affinity (S247A) | Binder
3 | 0.5 | 4.3 | 8.4 | 1.7 | 1 | 1 | 0.9 | 6F8.7 Fab (Fab, V domains shown) VH: DVQLQGSGPGLVKPSQSLSLTCSVTGYSITNDYYWNWIRQFPGNKLEWMGFISFGGSNNYNPSLKNRISITRDTSKNQFFLKLSSVTTEDTATYYCARYDGRGAWFAYWAQGTLVTVSA VL: DIQMTQSPASLSASVGETVTITCRASGNIHNYLAWYQQKQGKSPQLLVYDAITLADGVPSRFSGSGSGTQYSLKINSLQPEDFGNYYCQHFWSFPLTFGAGTKVEIK
4 | 0.6 | 0.7 | 8.8 | 2.1 | 0.7 | 1.1 | 0.8 | 7D4.6 Fab (Fab, V domains shown) VH: DVQLQESGPGLVKPSQSLSLTCTVTGYSITSDYAWNWIRQFPRNKLEWMGYINYSGTTNYNPSLKSRISITRDTSKNQFFLQLISVTTEDTATYYCSYYRYDGAWFPYWGQGTLVTVSA VL: DIQMTQSPASLSASVGETVTITCRASGNIHNYLAWYQQKQGKSPQLLVYNAIMLADGVPSRFSASGSGTQYSLKINSLQPEDFGSYYCQHFWSFPLTFGAGTKVEIK
